The values that follow come from patent US20120134979A1, “METHODS AND COMPOSITIONS FOR THE TREATMENT OF SICKLE CELL DISEASE” (priority 2010, published 2012).

Format in all cases: in vivo, mouse
Experiment [1] relates to SCD Tg mice. In words: 2,3-DPG in RBCs and saturated Hb in SCD Tg mice after chronic treatment. On the procedure: Chronic PEG-ADA therapy. SCD transgenic mice, at eight weeks of age, were divided to two groups. One group was injected with 2.5 U PEG-ADA weekly for 8 weeks. This dosing protocol was designated SCD with PEG-ADA treatment regimen (SCD+PEG-ADA). Another group was injected with normal saline for 8 weeks; it was designated as SCD without PEG-ADA treatment regimen (SCD). Wild-type mice (C57Bl/6) used as control were injected with saline or PEG-ADA as with the SCD groups.
Chronic treatment with A2BR antagonist, PSB1115. SCD transgenic mice or wild type mice (eight weeks of age) were divided to two groups, one groups was injected with 200 μg of PSB1115 (an A2B receptor antagonist: obtained from Tocris Bioscience, St. Louis, Mo.) in PBS, daily for 8 weeks. One of groups was injected with saline.
(§1) 2,3-DPG analysis. 2,3-DPG concentration in RBCs was detected by a commercially available kit (Roche, Nutley, N.J., and as described in Ericson A, de Verdier C H. A modified method for the determination of 2,3-diphosphoglycerate in erythrocytes. Scandinavian journal of clinical and laboratory investigation. 1972; 29(1):84-90).
Measurement of percentage of saturated Hb in mice. Percentage of saturated Hb (SpO2) in mice was measured by Oxysat (Kent Scientific Corp, CT). Mice were held in mouse holders (Kent Scientific Corp, CT) and Oxysat sensor was placed on a site approximately 1 cm from the base of the tail. When mouse was calm, the SpO2 was continuously recorded for about 2 minutes. The data were collected and SpO2 was calculated by average of SpO2 in two-minute measurement.

Experiment [2] relates to SCD Tg mice. In words: Hypoxia/reoxygenation-induced acute sickle crisis in SCD Tg mice with PEG-ADA pretreatment. On the procedure: Adenosine Analysis. The adenosine concentration present in whole blood was measured by HPLC as previously described (Knudsen, T. B., et al. Effects of (R)-deoxycoformycin (pentostatin) on intrauterine nucleoside catabolism and embryo viability in the pregnant mouse. Teratology 45, 91-103, 1992) with modifications. In brief, 500 μl of 0.6 M cold perchloric acid was added to 500 μl blood on ice, mixed using a vertex mixer and subsequently subject to sonication for 10 seconds with output 6 (W-220F, Heat Systems-Ultrasonic, Inc.). The homogenate was centrifuged at 20,000 g for 10 min at […]. The supernatant (568 μl) was transferred to a new tube and neutralized with 40.9 μl 3 M KHCO3/3.6 N KOH. Phenol red (2 μl of 0.2 mg/ml) was added as indicator. The sample was acidified with 5.7 μl of 1.8 M ammonium dihydrogen phosphate (pH 5.1) and 13.2 μl phosphoric acid (30%). Finally, the sample was centrifuged at 20,000 g for 5 min and the supernatant was transferred to a new tube and stored at −20° C. Before HPLC assay, the sample was thawed on ice, then centrifuged at 20,000 g for 10 minutes. The supernatant was transferred to a new tube for HPLC analysis as described previously (Aldrich, et al. Adenosine deaminase-deficient mice: models for the study of lymphocyte development and adenosine signaling. Adv Exp Med. Biol. 2000; 486, 57-63; Blackburn, et al. Metabolic and immunologic consequences of limited adenosine deaminase expression in mice. The Journal of Biological Chemistry. 1996; 271(25):15203-15210). Plasma adenosine measurements were performed as with whole blood, except the sonication step was omitted. Adenosine content was normalized to volume.
Hypoxia/reoxygenation of SCD Tg mice. SCD Tg mice were subjected to two-hour hypoxic condition with 8% oxygen. After hypoxia, mice were returned to normoxic conditions for four hours Wallace, et al. NKT cells mediate pulmonary inflammation and dysfunction in murine sickle cell disease through production of IFN-gamma and CXCR3 chemokines. Blood. 2009; 114(3):667-676). At the end of the experiments, mice were sacrificed and blood collected for adenosine measurement, sickling and hemolytic analysis.
Morphological study of erythrocytes and quantification of reticulocytes by flow cytometry. Blood smears were stained using the WG16-500 ml kit (Sigma-Aldrich) for sickled cells and observed using 100× oil immersion objective of Olympus BX60 microscope. […] The percentages of sickled cells among the counted cells were calculated. Reticulocyte was labeled by Retic-COUNT Reagent (Becton Dickinson) and quantified by flow cytometry (Perumbeti, et al., A novel human gamma-globin gene vector for genetic correction of sickle cell anemia in a humanized sickle mouse model: critical determinants for successful correction. Blood. 2009; 114(6):1174-1185).
as §1
Hemolytic analysis. The hemoglobin, haptoglobin and total bilirubin in mouse plasma were quantified by ELISA kits following instructions provided by the vendor (BioAssay Systems, Hayword, Calif.).

For experiment [3], the system named is SCD Tg mice. In words: Plasma adenosine levels in SCD Tg mice under weekly PEG-ADA. Conditions: weekly injection 2.5 U/week for 8 weeks. The protocol:
Adenosine Analysis. […] B., et al. Effects of (R)-deoxycoformycin (pentostatin) on intrauterine nucleoside catabolism and embryo viability in the pregnant mouse. Teratology 45, 91-103, 1992) with modifications. In brief, 500 μl of 0.6 M cold perchloric acid was added to 500 μl blood on ice, mixed using a vertex mixer and subsequently subject to sonication for 10 seconds with output 6 (W-220F, Heat Systems-Ultrasonic, Inc.). The homogenate was centrifuged at 20,000 g for 10 min at […]. The supernatant (568 μl) was transferred to a new tube and neutralized with 40.9 μl 3 M KHCO3/3.6 N KOH. Phenol red (2 μl of 0.2 mg/ml) was added as indicator. The sample was acidified with 5.7 μl of 1.8 M ammonium dihydrogen phosphate (pH 5.1) and 13.2 μl phosphoric acid (30%). Finally, the sample was centrifuged at 20,000 g for 5 min and the supernatant was transferred to a new tube and stored at −20° C. Before HPLC assay, the sample was thawed on ice, then centrifuged at 20,000 g for 10 minutes. […]

Setting [4] is: SCD Tg mice, 2 h hypoxia/4 h reoxygenation, PEG-ADA pretreatment.
Setting [5] is: SCD Tg mice, hypoxic/reoxygenation condition.

B1: PEG-ADA: polyethylene glycol-modified adenosine deaminase, a drug used to lower adenosine concentrations in ADA-deficient humans (protein, UniProt P56658 2-363, looked up)
Adenosine deaminase: AQTPAFNKPKVELHVHLDGAIKPETILYYGRKRGIALPADTPEELQNIIGMDKPLSLPEFLAKFDYYMPAIAGCREAVKRIAYEFVEMKAKDGVVYVEVRYSPHLLANSKVEPIPWNQAEGDLTPDEVVSLVNQGLQEGERDFGVKVRSILCCMRHQPSWSSEVVELCKKYREQTVVAIDLAGDETIEGSSLFPGHVKAYAEAVKSGVHRTVHAGEVGSANVVKEAVDTLKTERLGHGYHTLEDATLYNRLRQENMHFEVCPWSSYLTGAWKPDTEHPVVRFKNDQVNYSLNTDDPLIFKSTLDTDYQMTKNEMGFTEEEFKRLNINAAKSSFLPEDEKKELLDLLYKAYGMPSPASAEQCL
modifications: PEGylated
With B1, in the experiment with SCD Tg mice [1] (chronic PEG-ADA treatment), the “percentage of saturated Hb” value was “increased”. Moreover, in the experiment on SCD Tg mice [1] (steady state, 8 weeks treatment), the “2,3-DPG levels in the RBCs” value is “reduction”. In addition, the “2,3-DPG elevation by hypoxia/reoxygenation” value with SCD Tg mice [2] (SCD Tg mice RBCs, PEG-ADA pretreatment) was “significantly inhibited its elevation”. For the same molecule, in the experiment on SCD Tg mice [2] (setting [4]), the plasma adenosine levels entry is listed as “significantly lowered”, the plasma hemoglobin result is recorded as “decreased”, the plasma total bilirubin result was “decreased” and the sickling entry is recorded as “reduced”. In addition, in the experiment on SCD Tg mice [2] (setting [5]), the HCT worked out at 21.25 ± 2.52 %, the Hb was 4.58 ± 0.38 g/dL, the MCH is 9.12 ± 0.72 pg and the MCHC worked out at 18.65 ± 1.82 g/dL. Moreover, in the experiment with SCD Tg mice [2] (setting [5]), the MCV came out at 48.93 ± 2.05 fL, the RBC turned out to be 4.94 ± 0.17 M/μl, the RDW is listed as 29.72 ± 1.95 % and the WBC was determined as 18.68 ± 3.32 k/μl. In addition, the “Adenosine levels in the plasma at different time points” value with SCD Tg mice [3] is given as “lowered adenosine to a steady level within two weeks”.
